What all share (experiment): cell_activity
Data set [1] relates to ZFN 107830R (28492) (synthetic construct). As to conditions: as pair 107830L/R (pKG7479); tomato protoplasts, 48 h; also active in yeast assay.
The test system of data set [2] is ZFN 107830L (28491) (synthetic construct). As to conditions: as pair 107830L/R (pKG7479); tomato protoplasts, 48 h; also active in yeast assay.
Data set [3] deals with ZFN 107832R (28536) (synthetic construct). The note with it: as pair 107832L/R (pKG7480); tomato protoplasts, 48 h; also active in yeast assay.
In data set [4] the test system is ZFN 107832L (28535) (synthetic construct). The note with it: as pair 107832L/R (pKG7480); tomato protoplasts, 48 h; also active in yeast assay.
Data set [5] has as its system ZFN 107835L (28563) (synthetic construct). As to conditions: as pair 107835L/R (pKG7482); tomato protoplasts, 48 h; also active in yeast assay.
Data set [6] has as its system ZFN 107835R (28564) (synthetic construct). The note with it: as pair 107835L/R (pKG7482); tomato protoplasts, 48 h; also active in yeast assay.
Data set [7] has as its system ZFN 107833L (28549) (synthetic construct). As to conditions: as pair 107833L/R (pKG7481); tomato protoplasts, 48 h; also active in yeast assay.
Data set [8] relates to ZFN 107833R (28550) (synthetic construct). As to conditions: as pair 107833L/R (pKG7481); tomato protoplasts, 48 h; also active in yeast assay.

In data set [1], “AGCATCCTATGTATCTCGCCGTGGATTCGCATCGGGATCCG (double strand) [107830R target]” yielded an activity (% indel clones) of 4.1.

“CGGATCCCGATGCGAATCCACGGCGAGATACATAGGATGCT (double strand) [107830L target]” gave an activity (% indel clones) in data set [2] of 4.1.

In data set [3], “CTCTTTGGAGTTACCATGCTTGATGTGGTTAGGGCCAAG (double strand) [107832R target]” gave an activity (% indel clones) of 5.5.

“CTTGGCCCTAACCACATCAAGCATGGTAACTCCAAAGAG (double strand) [107832L target]” gave an activity (% indel clones) in data set [4] of 5.5.

Sequence “GGCTTATTACCTTGGATGCGAAGAAGGGAAGCTCGGTGAC (double strand) [107835L target]” gave an activity (% indel clones) in data set [5] of 0.7.

For the sequence “GTCACCGAGCTTCCCTTCTTCGCATCCAAGGTAATAAGCC (double strand) [107835R target]”, in data set [6], the activity (% indel clones) amounted to 0.7.

In data set [7], “GTTATGCCAGCATGACCACCAACTACTGGGAGATTGACCTCTGAA (double strand) [107833L target]” had an activity (% indel clones) of 2.

In the case of “TTCAGAGGTCAATCTCCCAGTAGTTGGTGGTCATGCTGGCATAAC (double strand) [107833R target]”, in data set [8], the activity (% indel clones) is 2.

The values are drawn from patent publication US20130326725.
